Sequences and labels used below:
B1: tail tube protein of phage 812 (natural protein, Staphylococcus phage 812)
chain: MASEAKQTVHTGNTVLLMIKGKPVGRAQSASGQREYGTTGVYEIGSIMPQEHVYLRYEGTITVERLRMKKENFADLGYASLGEEILKKDIIDILVVDNLTKQVIISYHGCSANNYNETWQTNEIVTEEIEFSYLTASDKART
B2: tail sheath protein of phage 812 (natural protein, Staphylococcus phage 812)
chain: MAVEPFPRRPITRPHASIEVDTSGIGGSAGSSEKVFCLIGQAEGGEPNTVYELRNYSQAKRLFRSGELLDAIELAWGSNPNYTAGRILAMRIEDAKPASAEIGGLKITSKIYGNVANNIQVGLEKNTLSDSLRLRVIFQDDRFNEVYDNIGNIFTIKYKGEEANATFSVEHDEETQKASRLVLKVGDQEVKSYDLTGGAYDYTNAIITDINQLPDFEAKLSPFGDKNLESSKLDKIENANIKDKAVYVKAVFGDLEKQTAYNGIVSFEQLNAEGEVPSNVEVEAGEESATVTATSPIKTIEPFELTKLKGGTNGEPPATWADKLDKFAHEGGYYIVPLSSKQSVHAEVASFVKERSDAGEPMRAIVGGGFNESKEQLFGRQASLSNPRVSLVANSGTFVMDDGRKNHVPAYMVAVALGGLASGLEIGESITFKPLRVSSLDQIYESIDLDELNENGIISIEFVRNRTNTFFRIVDDVTTFNDKSDPVKAEMAVGEANDFLVSELKVQLEDQFIGTRTINTSASIIKDFIQSYLGRKKRDNEIQDFPAEDVQVIVEGNEARISMTVYPIRSFKKISVSLVYKQQTLQA

The target in data set [1] is B2. The data set can be described thus: cryo-EM structure.
Data set [2] deals with the molecule itself. The data set can be described thus: cryo-EM structure.

B1: in data set [1], the binding result is “binds”.

For the molecule B2, the binding result in data set [2] is reported as “binds”.

The record behind these values is publication doi:10.1101/2024.09.19.613683 (bioRxiv, 2024).
